# Laboratory results reported in PMC3358306 (PLoS ONE, 2012).
# Where “and” joins values, the source holds several entries; their conditions need not be identical. Equal entries are not always repeated.
# B1: Archaeoglobus fulgidus Rio1 kinase Y200D mutant (enzyme, UniProt O28471 1-258, looked up)
# chain: MKDLKKIESYLDKLRIKEKDGEERKIYAEVLDGRTLKTLYKLSAKGYITAMGGVISTGKEANVFYADGVFDGKPVAMAVKIYRIETSEFDKMDEYLYGDERFDMRRISPKEKVFIWTEKEFRNLERAKEAGVSVPQPYTYMKNVLLMEFIGEDELPAPTLVELGRELKELDVEGIFNDVVENVKRLYQEAELVHADLSEDNIMYIDKVYFIDMGQAVTLRHPMAESYLERDVRNIIRFFSKYGVKADFEEMLKEVKGE
# notes: Rio1 kinase of Archaeoglobus fulgidus, full length, with Tyr 200 mutated to Asp; also called afRio1 Y200D; afRio1Y200D
# B2: human Rio1 kinase, residues 106 to 494, unphosphorylated (domain or fragment, UniProt Q9BRS2 106-494, looked up)
# chain: STPADKVLRKFENKINLDKLNVTDSVINKVTEKSRQKEADMYRIKDKADRATVEQVLDPRTRMILFKMLTRGIITEINGCISTGKEANVYHASTANGESRAIKIYKTSILVFKDRDKYVSGEFRFRHGYCKGNPRKMVKTWAEKEMRNLIRLNTAEIPCPEPIMLRSHVLVMSFIGKDDMPAPLLKNVQLSESKARELYLQVIQYMRRMYQDARLVHADLSEFNMLYHGGGVYIIDVSQSVEHDHPHALEFLRKDCANVNDFFMRHSVAVMTVRELFEFVTDPSITHENMDAYLSKAMEIASQRTKEERSSQDHVDEEVFKRAYIPRTLNEVKNYERDMDIIMKLKEEDMAMNAQQDNILYQTVTGLKKDLSGVQKVPALLENQVEERT
# notes: Rio1 kinase, human, residues 106 to 494; monomer MW 45.1 kDa as printed; also called hRio1; unphosphorylated hRio1; source: size exclusion; purified in the presence of 1 mM adenosine to prevent autophosphorylation
# B3: autophosphorylated human Rio1 kinase, residues 106 to 494 (domain or fragment, UniProt Q9BRS2 106-494, looked up)
# chain: B2 chain
# modifications: autophosphorylated; site not given
# notes: Rio1 kinase, human, residues 106 to 494, autophosphorylated; Same construct as m4, autophosphorylated in vitro; also called phosphorylated hRio1; autophosphorylated hRio1; source: purified hRio1 incubated at 25°C for 1 hr in 50 mM Tris pH 8.0, 200 mM NaCl, 2 mM MgCl2 and 0.2% β-mercaptoethanol
# Tests used:
# AUC = molecular target: the molecule itself; assay: AUC
# [1] = molecular target: the molecule itself; assay: SEC; analytical Superdex 200, sample diluted in buffer with 2 mM adenosine; 50 mM Tris pH 8.0, 200 mM NaCl, 0.2% β-mercaptoethanol; 3 µg/µl protein
# [2] = molecular target: the molecule itself; assay: SEC; analytical Superdex 200, sample diluted in buffer with 2 mM ATP; 50 mM Tris pH 8.0, 200 mM NaCl, 0.2% β-mercaptoethanol; 3 µg/µl protein
# [3] = molecular target: the molecule itself; assay: SEC; analytical Superdex 200, no ligand; 50 mM Tris pH 8.0, 200 mM NaCl, 0.2% β-mercaptoethanol; 3 µg/µl protein; size by calibration proteins
protein,measurement,setting,value
B1,stoichiometry N,AUC,4 and 3
B2,stoichiometry N,[1],4
same,stoichiometry N,[2],2
B3,stoichiometry N,[3],2
